Data published in patent US5840673, “Insulin-like growth factor binding protein 3 (IGF-BP3) in treatment of p53-related tumors” (Bristol-Myers Squibb Company).

Molecular target: p53 (His-tagged, wild type) (Homo sapiens, UniProt P04637 P04637:1-393)
Test: EMSA; binding potentiated and supershifted by PAb421
Conditions: tags: His fusion, baculovirus-produced; chain copies: 4

Chain of p53 (His-tagged, wild type) (P04637 whole entry, one chain of several): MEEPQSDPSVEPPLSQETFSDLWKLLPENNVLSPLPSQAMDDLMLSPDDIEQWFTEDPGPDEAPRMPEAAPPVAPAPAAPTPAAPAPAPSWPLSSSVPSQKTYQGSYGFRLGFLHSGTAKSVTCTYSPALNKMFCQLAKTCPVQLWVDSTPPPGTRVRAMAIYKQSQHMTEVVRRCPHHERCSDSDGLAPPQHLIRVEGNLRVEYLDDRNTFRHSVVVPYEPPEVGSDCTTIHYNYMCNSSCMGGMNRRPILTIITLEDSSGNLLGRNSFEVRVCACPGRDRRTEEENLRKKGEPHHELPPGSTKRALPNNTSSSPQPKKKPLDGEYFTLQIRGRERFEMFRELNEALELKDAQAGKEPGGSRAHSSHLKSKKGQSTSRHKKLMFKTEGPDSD

B1: IGF-BP3 Box A (dsDNA)
DNA 1: TCGAGAAAACAAGCCACCAACATGCTTGC
DNA 2: GCAAGCATGTTGGTGGCTTGTTTTCTCGA
Does B1 bind?
Result: binds

B2: IGF-BP3 Box B (dsDNA)
DNA 1: TCGAGAGGAGGGCAAGACCTGCCAAGCCTGGGTA
DNA 2: TACCCAGGCTTGGCAGGTCTTGCCCTCCTCTCGA
Does B2 bind?
Result: binds
